Results taken from the supplement of paper PMC10724198.
± gives the standard deviation of the averaged measurements.

Test system: Saccharomyces cerevisiae
Experiment: protein stability index of tFT-peptide fusion (C-terminal peptide) (PSI (0-1 scale)); higher = more stable (slower turnover)
Conditions: genetic background: wild type; temperature: 30 C
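Note: PSI is a weighted mean of sequencing reads over stability bins, variants kept only with over 10 reads, mCherry proximal and sfGFP distal, peptide attached via GGGS linker.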

Sequence	protein stability index
RMINRLEKKHTK	0.771 ± 0.098
RMKKYKYELDLN	0.659 ± 0.019
RNKKKKNKNEKE	0.705 ± 0.0073
RNKNNKKNKKIR	0.702 ± 0.1
RNNKMYKYQGNL	0.662 ± 0.083
RNQQQENNKQSK	0.694 ± 0.016
RNSTDENDCGRK	0.7062 ± 0.00038
RNTKGRIKKKKE	0.728 ± 0.039
RNTRAVREHRNV	0.726 ± 0.0092
RNTSQNRIDEKL	0.657 ± 0.014
RNVALPSRKAQY	0.715 ± 0.016
RNYQKAKENMKL	0.585 ± 0.14
RPAPASAFPHSP	0.69 ± 0.045
RPASPRSPIVSR	0.726 ± 0.024
RPAVPSPRPPPP	0.674 ± 0.029
RPELGLCAGDTN	0.673 ± 0.061
RPFAPLPPPPSM	0.689 ± 0.025
RPFATVLRTRAV	0.71 ± 0.0077
RPGGVRVVSIQL	0.672 ± 0.06
RPGYDRNRTGMI	0.738 ± 0.073
RPHAFHCDPSSP	0.698 ± 0.11
RPKTLGNAREEG	0.708 ± 0.039
RPKWLCAIATAD	0.687 ± 0.023
RPLPGAFLLFRS	0.695 ± 0.021
RPLRRQREVCGA	0.597 ± 0.019
RPLRVLSYVPIH	0.644 ± 0.03

Sequence	protein stability index
RPLWVDGPHPSR	0.666 ± 0.1
RPMKGLSMGSCA	0.66 ± 0.011
RPPFPLRTSPLV	0.694 ± 0.037
RPPLSPLLYPPP	0.7115 ± 0.0022
RPPPALWPPPSP	0.694 ± 0.027
RPPPSPPPIPSP	0.666 ± 0.033
RPPRPPTHSPPP	0.68 ± 0.01
RPRPKRCGPRSV	0.672 ± 0.052
RPRQAAAQGGAR	0.694 ± 0.036
RPRVCFPHIAGT	0.777 ± 0.11
RPSARSLVSPSP	0.716 ± 0.025
RPTGHAPSRALT	0.659 ± 0.062
RPVPVPTALIPS	0.61 ± 0.013
RPVSQRRRKHIG	0.645 ± 0.064
RPWAKGTGGRCY	0.723 ± 0.21
RPYGKQTERYVK	0.672 ± 0.029
RPYLSPPPPTSP	0.687 ± 0.093
RQFLSLLPCSLP	0.771 ± 0.094
RQGMGPKLVKHQ	0.633 ± 0.1
RQHPPLPSFPSP	0.759 ± 0.06
RQKAQESNTQPP	0.73 ± 0.044
RQLVNKKIKEKK	0.7258 ± 0.0051
RQPPPRSPPSYL	0.75 ± 0.063
RQQRKIYTDKQD	0.754 ± 0.0057
RQQSIIDNQIGQ	0.6802 ± 0.0061
RRAKMHSRRSLA	0.648 ± 0.053

Sequence	protein stability index
RRAKMSWCCKKY	0.69 ± 0.0098
RRCRLNPPIDST	0.683 ± 0.088
RREVKKNGNKRN	0.713 ± 0.073
RRFKIDKNKIKL	0.683 ± 0.018
RRGKIETKESKK	0.712 ± 0.044
RRGTRGGGGRER	0.638 ± 0.019
RRGWVRWRVGAA	0.667 ± 0.074
RRLFGLGWDVKI	0.7177 ± 0.0034
RRMVRLDACASV	0.659 ± 0.041
RRNISRQNKKKR	0.76 ± 0.11
RRPPPPRGPSPP	0.713 ± 0.02
RRPPRVYLQLSI	0.67 ± 0.066
RRQPPRDQGTPC	0.795 ± 0.13
RRREGTVPWYIS	0.605 ± 0.057
RRRKPAEHTPPW	0.755 ± 0.1
RRRNSTFTNLDT	0.6783 ± 0.0045
RRRSLLLTYSYV	0.541 ± 0.055
RRSLDQSIQAKC	0.643 ± 0.055
RRTAVEEWGVGG	0.672 ± 0.12
RRTEGLATAGRV	0.666 ± 0.072
RRVGSGGLEGIG	0.528 ± 0.019
RRVPVVSRSGGG	0.697 ± 0.043
RRWGLIGVMSYL	0.732 ± 0.089
RSAMRLFEPFSP	0.745 ± 0.19
RSEGEGGKGKRE	0.687 ± 0.019
RSFVSRGSILWF	0.723 ± 0.13

Sequence	protein stability index
RSGAAREVSGGA	0.7546 ± 0.0052
RSGRCWSFPFSV	0.703 ± 0.026
RSHRGSPCPLVP	0.69 ± 0.025
RSISGVNMENVQ	0.639 ± 0.018
RSLDEPCGFFRP	0.637 ± 0.023
RSLSLAPSFPLP	0.697 ± 0.0086
RSPINSRRGGVV	0.689 ± 0.0097
RSPPAPRFLPAP	0.652 ± 0.049
RSPPPLPSPPSH	0.709 ± 0.035
RSPPPPPGPRFP	0.698 ± 0.019
RSPPTQGQTPTT	0.696 ± 0.028
RSRCYSNIRIFI	0.589 ± 0.048
RSRSELRVFCTS	0.556 ± 0.011
RSSARPQNRPLP	0.733 ± 0.035
RSSFCILCCLFS	0.557 ± 0.024
RSSIGNLCCRLL	0.6884 ± 0.0034
RSSPPSPPLLSP	0.611 ± 0.023
RSSTYGIMYSYR	0.715 ± 0.035
RSYRLRTSRADI	0.683 ± 0.1
RTHTAALCRTHS	0.7047 ± 0.0057
RTLAGLLVDSHV	0.679 ± 0.041
RTLHKKRLLAHR	0.693 ± 0.041
RTLSSFSPGYLF	0.8548 ± 0.0033
RTLYEAAPLFVG	0.729 ± 0.051
RTRLPYVPAPAP	0.686 ± 0.0092
RTRSVPWEPRYF	0.687 ± 0.03

Sequence	protein stability index
RTSCEQYERGLM	0.673 ± 0.012
RTSPRSHVSRSL	0.79 ± 0.056
RTVPCCVAENKF	0.672 ± 0.012
RVCFVTNLVDVT	0.721 ± 0.096
RVDALVHLPLRL	0.629 ± 0.03
RVETYQKMTSRL	0.757 ± 0.0092
RVFDPSRSTVVE	0.774 ± 0.018
RVGHGHRSPTRV	0.677 ± 0.14
RVGRGGGRETRG	0.699 ± 0.031
RVGRNLRVGGES	0.69 ± 0.008
RVGTHDRTRAHG	0.601 ± 0.02
RVGVRGVVVSMG	0.612 ± 0.075
RVLGGGVLGVLV	0.711 ± 0.0099
RVLLYWRGSGVL	0.577 ± 0.071
RVLSCAFSTLWA	0.711 ± 0.12
RVMGRHIGRPRE	0.702 ± 0.015
RVPDNYLKWSYI	0.719 ± 0.051
RVRFRVYKGGAL	0.661 ± 0.041
RVRGDRLGGRGT	0.706 ± 0.043
RVRGGGPRESGQ	0.728 ± 0.024
RVSAPPSFHGSF	0.722 ± 0.014
RVSGYTHPLLSC	0.679 ± 0.079
RVSLREVKAEKN	0.682 ± 0.057
RVTVWHELTVDC	0.569 ± 0.0083
RVVGGGGEAWRE	0.73 ± 0.033
RVWAGGGGGDGC	0.691 ± 0.021

Sequence	protein stability index
RVYTSAWAPDWR	0.62 ± 0.056
RWCRLGHRWRVV	0.563 ± 0.054
RWFTFPVPVPFC	0.642 ± 0.036
RWGGGKWWRGAE	0.659 ± 0.018
RWSVLSRSCSSY	0.729 ± 0.034
RWTRFISLTGTG	0.637 ± 0.064
RWVEGVWGVWCG	0.757 ± 0.042
RYCESKVFKERE	0.742 ± 0.049
RYFPNRGSGLTY	0.786 ± 0.037
RYIKSRMLIIER	0.56 ± 0.049
RYLVLPDLCPIS	0.736 ± 0.1
RYPPVQPRRAQR	0.593 ± 0.031
RYRSRHHSTYVL	0.635 ± 0.26
RYSRVALRPRPP	0.579 ± 0.052
RYTKYKSYPYDI	0.6897 ± 0.0023
SACPPIPPPPPP	0.635 ± 0.026
SAGGCSVMAGNG	0.709 ± 0.11
SAGVIVPGRAGR	0.761 ± 0.082
SAHPFKSCPIGR	0.682 ± 0.0094
SAKGGVLLIGLF	0.603 ± 0.2
SALRGTDMREEV	0.632 ± 0.023
SAPFGFLFFARL	0.815 ± 0.083
SAPLRHTSSSPS	0.697 ± 0.043
SAPPSPPLPPPC	0.677 ± 0.067
SAPRDLYIHFSR	0.7371 ± 0.0014
SARGRTRTADPS	0.677 ± 0.048

Sequence	protein stability index
SARRFPPPPSSS	0.702 ± 0.046
SASSESTFLRAR	0.641 ± 0.012
SATALTANHPKM	0.677 ± 0.0096
SCITFGGWLGGM	0.709 ± 0.13
SCLCIHEIFLRL	0.672 ± 0.016
SCLWRGHDTVWL	0.662 ± 0.098
SCSFLISLLLLP	0.525 ± 0.023
SCTGGLVSVRGV	0.666 ± 0.023
SCVNGYSVCMCW	0.524 ± 0.046
SCWVLPFHYGSG	0.714 ± 0.026
SDDTIQNQICPG	0.66 ± 0.059
SDIHSSMTSGSF	0.669 ± 0.014
SDLKARYHCGRD	0.652 ± 0.075
SDPASVIPMELE	0.673 ± 0.052
SDRLLYLGNYDV	0.773 ± 0.0011
SDTPTHVLGPPY	0.716 ± 0.038
SEKKKKNKKNKK	0.714 ± 0.2
SELTCSSINSAT	0.673 ± 0.024
SENVSATLNNQD	0.708 ± 0.028
SEPCSASLSVSL	0.64 ± 0.045
SEPPFSFLNVSP	0.676 ± 0.018
SEVPCENSRRVV	0.667 ± 0.08
SFFFFSPFSRLS	0.693 ± 0.032
SFFFLVPFSVFL	0.586 ± 0.1
SFFLMTPPPSLR	0.698 ± 0.12
SFGLAPLSSFFC	0.705 ± 0.078

Sequence	protein stability index
SFGLSYYFRNSL	0.731 ± 0.066
SFLHSRAELPAG	0.604 ± 0.065
SFLIADLPSTPP	0.763 ± 0.13
SFLSPPSPPHSP	0.639 ± 0.01
SFPLPPLSPPSR	0.73 ± 0.048
SFPPPFLISLSP	0.676 ± 0.042
SFPPPHPPPPLP	0.6998 ± 0.0045
SFPPSPLPPPPR	0.586 ± 0.018
SFRVLCHGAQLL	0.634 ± 0.065
SFSRFFAIRPSF	0.723 ± 0.091
SFTSGFTDAGNI	0.6008 ± 0.0047
SFYSAALSCVFI	0.737 ± 0.15
SGACRLEESGKV	0.755 ± 0.061
SGGCDNGRMRWV	0.682 ± 0.07
SGGGGVLGWRGG	0.682 ± 0.022
SGGGVGGQVAVG	0.715 ± 0.087
SGGPDCLSMSGL	0.694 ± 0.025
SGGRSPYLLVGL	0.725 ± 0.053
SGGRVSGLVGEE	0.673 ± 0.031
SGGSALGCGRAA	0.658 ± 0.063
